Laboratory results as given in article PMC4018528.

Target: recombinant His-tagged Sp4E-BP (Strongylocentrotus purpuratus 4E-BP) (Strongylocentrotus purpuratus)
Assay: SPR; Sp4E-BP immobilised (60 uRIU) by amine coupling on a mixed SAM chip; Flag-MmIF4E1:m7GTP injected from 4.37 uM to 53.9 nM (3-fold dilution series); 25°C; HEPES 50 mM pH 7.7, KCl 150 mM, 0.5% Igepal; flow 25 uL/min; global fit, one step 1:1 reaction (Scrubber 2.0a)

For “Flag-tagged MmIF4E1 (eIF4E1 from Mus musculus), as Flag-MmIF4E1:m7GTP (from UniProt P63073 1-217) (natural protein)”, the Kd was 23 nM, the koff was 0.00022 s⁻¹ and the kon was 9300 M⁻¹ s⁻¹.
